# Experimental data reported in patent US20260103513A1.
# How the values were obtained:
# [1] = target: TIGIT protein overexpressed on cells (Homo sapiens (Human)) (UniProt Q495A1); experiment: flow cytometry on 293T-TIGIT cells, Alexa-647 anti-human Fc, MFI
# [2] = target: Cynomolgus monkey TIGIT-His tag fusion protein (cynomolgus monkey); experiment: ELISA, cynomolgus TIGIT-His coated, HRP anti-human IgG, OD450
# Sequence of Cynomolgus monkey TIGIT-His tag fusion protein (cynomolgus monkey) (chain, as listed by the source): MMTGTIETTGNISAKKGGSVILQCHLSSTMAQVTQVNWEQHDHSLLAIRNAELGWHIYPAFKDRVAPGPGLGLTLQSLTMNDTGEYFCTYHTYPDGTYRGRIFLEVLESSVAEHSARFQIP
# Sequence of TIGIT protein overexpressed on cells (Homo sapiens (Human)) (Q495A1 22-244): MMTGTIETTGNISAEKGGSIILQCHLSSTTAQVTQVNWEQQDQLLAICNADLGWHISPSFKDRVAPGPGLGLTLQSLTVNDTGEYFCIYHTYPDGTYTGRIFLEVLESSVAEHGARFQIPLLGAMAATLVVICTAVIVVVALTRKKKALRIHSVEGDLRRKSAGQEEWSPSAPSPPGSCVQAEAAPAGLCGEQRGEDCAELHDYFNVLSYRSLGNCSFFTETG
substance,measurement,setting,value
Tiragolumab analog (antibody),EC50 (read off the curve),[1],0.4 mg/L
same,EC50 (read off the curve),[2],0.08 mg/L
